In patent US20190071490A1, “Preventing Post-Ictal Headaches” (Beth Israel Deaconess Medical Center, Inc., priority 2017, published 2019):

Assays:
[1] = target: human α-CGRP fragment 19-37 (human); assay: Biacore SPR, 25 °C, Fab flowed across N-biotinylated peptide on SA chip; mean ± SD of two independent measurements on different chips
[2] = target: human α-CGRP fragment 25-37 (human); assay: as above
[3] = target: human α-CGRP fragment 25-37 (human); assay: Biacore, 25°C, Fab over biotinylated fragment (FIG. 1)
[4] = target: human α-CGRP 1-37 (WT) (human); assay: Biacore, 25°C, Fab over biotinylated CGRP on SA chip
Sequence of human α-CGRP 1-37 (WT) (human) (peptide, as listed by the source): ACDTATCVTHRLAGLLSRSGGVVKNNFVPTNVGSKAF

[5] = target: human α-CGRP 1-37 (WT) (human); assay: Biacore, 37°C, Fab over biotinylated CGRP on SA chip
[6] = target: rat α-CGRP (1-37) (rat); assay: as above
Sequence of rat α-CGRP (1-37) (rat) (peptide, as listed by the source): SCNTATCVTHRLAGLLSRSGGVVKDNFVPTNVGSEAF

[7] = target: human α-CGRP K35A (19-37) (human); assay: Biacore SPR, 25 °C, Fab flowed across peptide on SA chip; KD of alanine mutant relative to parent fragment 19-37
[8] = target: human α-CGRP S34A (25-37) (human); assay: Biacore SPR, 25 °C, Fab flowed across peptide on SA chip; KD of alanine mutant relative to parent fragment 25-37
[9] = target: human α-CGRP N31A (25-37) (human); assay: as above
[10] = target: human α-CGRP P29A (25-37) (human); assay: as above
[11] = target: human α-CGRP V32A (25-37) (human); assay: as above
[12] = target: human α-CGRP T30A (25-37) (human); assay: as above
[13] = target: human α-CGRP F27A (25-37) (human); assay: as above
[14] = target: human α-CGRP V28A (25-37) (human); assay: as above
[15] = target: human α-CGRP G33A (25-37) (human); assay: as above
[16] = target: human α-CGRP 1-37 (WT) (human); assay: Biacore SPR, 25 °C, Fab flowed across N-biotinylated peptide on SA chip

- Kd [1]: 52 nM
- Kd [2]: 296 nM
- fold lower affinity than to full length human α-CGRP [3]: 6 fold
- Kd [4]: 61 nM
- Kd [5]: 139 nM
- Kd [6]: 3.4 nM
- KD(mutant/parent) [7]: 0.3
- KD(mutant/parent) [8]: 0.8
- KD(mutant/parent) [9]: 0.3
- KD(mutant/parent) [10]: 0.2
- KD(mutant/parent) [11]: 0.9
- KD(mutant/parent) [12]: 0.2
- KD(mutant/parent) [13]: 0.8
- KD(mutant/parent) [14]: 0.8
- KD(mutant/parent) [15]: 1.3
- Kd [16]: 60.5 nM
Substance: anti-CGRP antibody 4901, Fab fragment
